According to EP4036575A1 (Yeda Research and Development Co. Ltd, dated 2022):

Molecular target: T1, mouse recombinant His-calmodulin (mouse, UniProt P0DP26 1-149)
T1 construct: also called His-CaM; His-tagged calmodulin
Test: SPR (Biacore), His-CaM immobilised on CM5, analyte preincubated with 0.3 mM CaCl2

B1: M13 peptide, the binding fragment (26 aa peptide) of the skeletal muscle myosin light chain kinase (sk-MLCK) (peptide)
peptide: KRRWKKNFIAVSAANRFKKISSSGAL
Kd: 8.8 nM
